In patent publication US20100325744A1:
Substitutions are numbered along the chain they refer to. Names and notes keep the numbering of the source. Each block holds one binder with its values, some of them ahead of it.

Tests used:
2F8-HG-T234A (human) = assay: self-association of HG half-molecules; non-covalent nano-electrospray mass spectrometry
2F8-HG-L236V (human) [1] = assay: as above
2F8-HG-L236V (human) [2] = assay: self-association; non-covalent nano-electrospray mass spectrometry at 0.01-10 µM
2F8-HG-L236A (human) = assay: self-association of HG half-molecules; non-covalent nano-electrospray mass spectrometry
2F8-HG-F273A (human) [3] = assay: as above
2F8-HG-F273A (human) [4] = assay: self-association; non-covalent nano-electrospray mass spectrometry at 0.01-10 µM
2F8-HG-Y275A (human) [5] = assay: self-association of HG half-molecules; non-covalent nano-electrospray mass spectrometry
2F8-HG-Y275A (human) [6] = assay: self-association; non-covalent nano-electrospray mass spectrometry at 0.01-10 µM
2F8-HG-F273L (human) = assay: self-association of HG half-molecules; non-covalent nano-electrospray mass spectrometry

percentage molecules present as monomers (2F8-HG-T234A (human)): > 80%
B1: 2F8-HG-T234A (antibody, part only; not given: 2F8 variable domains, not shown: a dimerising Fc or GST)
heavy, part: ASTKGPSVFPLAPCSRSTSESTAALGCLVKDYFPEPVTVSWNSGALTSGVHTFPAVLQSSGLYSLSSVVTVPSSSLGTKTYTCNVDHKPSNTKVDKRVAPEFLGGPSVFLFPPKPKDTLMISRTPEVTCVVVDVSQEDPEVQFNWYVDGVEVHNAKTKPREEQFNSTYRVVSVLTVLHQDWLNGKEYKCKVSNKGLPSSIEKTISKAKGQPREPQVYTLPPSQEEMTKNQVSLACLVKGFYPSDIAVEWESNGQPENNYKTTPPVLDSDGSFFLYSRLTVDKSRWQEGNVFSCSVMHEALHNHYTQKSLSLSLGK

percentage molecules present as monomers (2F8-HG-Y275A (human) [5]): > 80%
percentage monomeric at low concentrations (2F8-HG-Y275A (human) [6]): 100%
B5: 2F8-HG-Y275A (antibody, part only; not given: 2F8 variable domains, not shown: a dimerising Fc or GST)
heavy, part: B1 heavy, part with A234T, Y275A

More lines, now with the values behind:

B2: 2F8-HG-L236V (antibody, part only; not given: 2F8 variable domains, not shown: a dimerising Fc or GST)
heavy, part: B1 heavy, part with A234T, L236V
percentage molecules present as monomers (2F8-HG-L236V (human) [1]): > 80%
percentage monomeric at low concentrations (2F8-HG-L236V (human) [2]): 100%

B3: 2F8-HG-L236A (antibody, part only; not given: 2F8 variable domains, not shown: a dimerising Fc or GST)
heavy, part: B1 heavy, part with A234T, L236A
percentage molecules present as monomers (2F8-HG-L236A (human)): > 80%

B4: 2F8-HG-F273A (antibody, part only; not given: 2F8 variable domains, not shown: a dimerising Fc or GST)
heavy, part: B1 heavy, part with A234T, F273A
percentage molecules present as monomers (2F8-HG-F273A (human) [3]): > 80%
percentage monomeric at low concentrations (2F8-HG-F273A (human) [4]): 100%

B6: 2F8-HG-F273L (antibody, part only; not given: 2F8 variable domains, not shown: a dimerising Fc or GST)
heavy, part: B1 heavy, part with A234T, F273L
percentage molecules present as monomers (2F8-HG-F273L (human)): > 80%
